Experimental data: PMC8344021, “Discovery of Small Molecule Bak Activator for Lung Cancer Therapy” (Theranostics, 2021)
Several values for one entry are separate records, joined by “and”; a condition that tells them apart may be missing. Identical values can stand only once.

Biological target: T1, Bak (endogenous, mitochondria of A549 cells) (human (endogenous in A549)), Q16611
T1 chain: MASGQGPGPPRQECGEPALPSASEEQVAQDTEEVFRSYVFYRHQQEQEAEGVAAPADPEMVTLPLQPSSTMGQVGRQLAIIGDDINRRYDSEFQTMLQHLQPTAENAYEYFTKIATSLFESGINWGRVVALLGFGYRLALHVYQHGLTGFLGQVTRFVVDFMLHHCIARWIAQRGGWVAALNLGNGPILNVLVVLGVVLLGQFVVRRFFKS
Test: cross-linking; A549 cells treated with BKA-073 (1 uM) for 24 h; mitochondrial fraction; 10 mM BMH in PBS pH 7.2 with 5 mM EDTA, 1 h at room temperature, quenched with DTT; SDS-PAGE and Western blot with a Bak antibody
Conditions: remark: other sources report otherwise

B1: Bak (endogenous, mitochondria of A549 cells), Q16611 1-211 (natural protein)
chain: MASGQGPGPPRQECGEPALPSASEEQVAQDTEEVFRSYVFYRHQQEQEAEGVAAPADPEMVTLPLQPSSTMGQVGRQLAIIGDDINRRYDSEFQTMLQHLQPTAENAYEYFTKIATSLFESGINWGRVVALLGFGYRLALHVYQHGLTGFLGQVTRFVVDFMLHHCIARWIAQRGGWVAALNLGNGPILNVLVVLGVVLLGQFVVRRFFKS
  stoichiometry N: 2 and 3
